B1: AA (structured_DNA)
DNA 1: GGTTGGTGTGGTTGGA
DNA 2: GGTTGGTGTGGTTGGA
modifications: 3'-3' phosphodiester inversion joins the two listed segments covalently (both written 5' to 3'); one molecule, not a duplex

Biological target: human alpha-thrombin (Homo sapiens, UniProt P00734;P00734 315-363;364-622)
Experiment: ITC; ITC in PBS (10 mM phosphate, 2.7 mM KCl, 137 mM NaCl), pH 7.4, 22 °C; ODN 25 or 100 µM into thrombin 2.5 or 10 µM

Row | Binder | Kd
1 | B1 | 10 nM
2 | GGTTGGTGTGGTTGG (structured_DNA) [TBA] | 8 nM

Reference: article PMC6591170
